Data: IntAct's records for PubMed 19632184

B1: Kinesin-like protein KIF2C (Homo sapiens), Q99661 (parent)
chain: MAMDSSLQARLFPGLAIKIQRSNGLIHSANVRTVNLEKSCVSVEWAEGGATKGKEIDFDDVAAINPELLQLLPLHPKDNLPLQENVTIQKQKRRSVNSKIPAPKESLRSRSTRMSTVSELRITAQENDMEVELPAAANSRKQFSVPPAPTRPSCPAVAEIPLRMVSEEMEEQVHSIRGSSSANPVNSVRRKSCLVKEVEKMKNKREEKKAQNSEMRMKRAQEYDSSFPNWEFARMIKEFRATLECHPLTMTDPIEEHRICVCVRKRPLNKQELAKKEIDVISIPSKCLLLVHEPKLKVDLTKYLENQAFCFDFAFDETASNEVVYRFTARPLVQTIFEGGKATCFAYGQTGSGKTHTMGGDLSGKAQNASKGIYAMASRDVFLLKNQPCYRKLGLEVYVTFFEIYNGKLFDLLNKKAKLRVLEDGKQQVQVVGLQEHLVNSADDVIKMIDMGSACRTSGQTFANSNSSRSHACFQIILRAKGRMHGKFSLVDLAGNERGADTSSADRQTRMEGAEINKSLLALKECIRALGQNKAHTPFRESKLTQVLRDSFIGENSRTCMIATISPGISSCEYTLNTLRYADRVKELSPHSGPSGEQLIQMETEEMEACSNGALIPGNLSKEEEELSSQMSSFNEAMTQIRELEEKAMEELKEIIQQGPDWLELSEMTEQPDYDLETFVNKAESALAQQAKHFSALRDVIKALRLAMQLEEQASRQISSKKRPQ

Variants of: B1
Settings: with mare1_human MAPRE1, Q15691
Chain of mare1_human MAPRE1, Q15691 (Q15691 whole entry): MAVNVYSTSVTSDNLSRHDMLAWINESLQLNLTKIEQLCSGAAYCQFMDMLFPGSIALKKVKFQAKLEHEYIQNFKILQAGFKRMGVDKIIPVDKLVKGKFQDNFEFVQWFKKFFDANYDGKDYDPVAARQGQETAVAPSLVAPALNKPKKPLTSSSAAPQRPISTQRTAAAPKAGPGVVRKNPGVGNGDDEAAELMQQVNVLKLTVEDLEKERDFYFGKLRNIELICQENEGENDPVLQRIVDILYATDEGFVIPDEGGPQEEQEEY

Row | effect of a mutation on the interaction | Variant
1 | decreasing interaction | I100N;P101N
